Laboratory results published in patent US20030120037A1 (published 2003).
Each block holds one molecule with its values, some of them ahead of it.

Tests used:
[1] = biological target: FPRL1, seven-transmembrane G-protein coupled receptor (human) (UniProt P25090); experiment: cell-based or functional assay
[2] = biological target: T1, FPR, classical formyl peptide receptor (human, UniProt P21462 1-350); experiment: binding of radiolabeled SAA to receptor-transfected cells
T1 construct: whole, on cells; also called FPR/293 cells
T1 sequence (looked up): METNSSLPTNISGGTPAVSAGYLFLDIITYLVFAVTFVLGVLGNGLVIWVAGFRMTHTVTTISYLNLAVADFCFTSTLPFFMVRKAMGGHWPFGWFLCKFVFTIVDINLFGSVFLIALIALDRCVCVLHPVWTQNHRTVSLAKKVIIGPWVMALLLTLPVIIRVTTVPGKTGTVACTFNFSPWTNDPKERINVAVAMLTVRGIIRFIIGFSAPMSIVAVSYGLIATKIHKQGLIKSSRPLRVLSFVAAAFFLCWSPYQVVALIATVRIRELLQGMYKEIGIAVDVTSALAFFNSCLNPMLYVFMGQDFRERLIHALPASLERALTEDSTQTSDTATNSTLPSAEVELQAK

[3] = biological target: T2, FPRL1, seven-transmembrane G-protein coupled receptor (human, UniProt P25090 1-351); experiment: radioligand binding on FPRL1/293 cells; 16 nM 125I-SAA with increasing unlabeled SAA; LIGAND analysis; FPRL1/293 cells; saturation/LIGAND estimate, 42000 sites/cell
T2 construct: whole, on cells; also called FPRH2; LXA4R
T2 sequence (looked up): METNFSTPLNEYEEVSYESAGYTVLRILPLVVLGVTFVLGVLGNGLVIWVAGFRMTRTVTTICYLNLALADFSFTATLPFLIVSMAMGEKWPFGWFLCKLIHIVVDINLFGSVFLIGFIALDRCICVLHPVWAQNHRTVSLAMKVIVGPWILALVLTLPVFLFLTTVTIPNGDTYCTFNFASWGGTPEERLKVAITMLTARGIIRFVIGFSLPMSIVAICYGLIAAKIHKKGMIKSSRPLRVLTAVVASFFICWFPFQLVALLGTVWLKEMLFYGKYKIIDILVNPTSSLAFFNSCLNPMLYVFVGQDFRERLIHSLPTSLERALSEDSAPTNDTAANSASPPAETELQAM

[4] = biological target: T2, FPRL1, seven-transmembrane G-protein …; experiment: Homologous displacement binding on human monocytes (native cells): constant 125I-SAA plus increasing unlabeled SAA, LIGAND/Scatchard analysis. The filing names FPRL1 as the SAA receptor on phagocytes; the receptor on monocytes is not isolated in this panel.
[5] = biological target: T2, FPRL1, seven-transmembrane G-protein …; experiment: displacement of 125I-SAA from FPRL1/293 cells by unlabeled SAA (the same value is told for monocytes and neutrophils); homologous displacement of 125I-SAA by unlabeled SAA; FPRL1/293 cells

Molecule: N-formyl-methionyl-leucyl-phenylalanine (peptide)
Ca2+ mobilization in FPRL1 transfected cells (FPRL1/293 cells) [1]: 10 µM

binding result [2]: no binding
Kd [3]: 64 nM
Kd [4]: 34 nM
B1: 125I-labeled recombinant human serum amyloid A (ligand)
chain: MRSFFSFLGEAFDGARDMWRAYSDMREANYIGSDKYFHARGNYDAAKRGPGGVWAAEAISNARENIQRFFGRGAEDSLADQAANEWGRSGKDPNHFRPAGLPEKY
modifications: radio-iodinated on tyrosine and lysine residues with the chloramine T method (125I)
notes: specific activity 5.8 mCi/mg; also called radioiodinated SAA

IC50 [5]: ~50 nM
B2: Recombinant human (rh) serum amyloid A (SAA) (ligand)
chain: B1 chain
notes: Bought from Pepro Tech; also called rhSAA; unlabeled SAA
